This note sets out measurements from PMC11779849.

In experiment [1] the target is full length W2A-Pcad with an mCherry tag on the C-terminus (human). Nature of the experiment: co-IP; lysates of A431 Pcad-mCherry cells grown 48 h without or with CQY684 Fab (200 nM); anti-mCherry rabbit mAb on magnetic protein G beads pulls down Pcad as bait; p120 detected by Western blot, p120/Pcad ratio normalised to WT -CQY; M2 lysis buffer pH 7.5, 50 mM Tris-HCl, 150 mM NaCl, 1% SDS, 1% Triton-X 100.

For experiment [2], the target named is full length WT-Pcad with an mCherry tag on the C-terminus (human) (UniProt P22223). The experiment is described as above.
Chain of full length WT-Pcad with an mCherry tag on the C-terminus (human) (P22223 25-829): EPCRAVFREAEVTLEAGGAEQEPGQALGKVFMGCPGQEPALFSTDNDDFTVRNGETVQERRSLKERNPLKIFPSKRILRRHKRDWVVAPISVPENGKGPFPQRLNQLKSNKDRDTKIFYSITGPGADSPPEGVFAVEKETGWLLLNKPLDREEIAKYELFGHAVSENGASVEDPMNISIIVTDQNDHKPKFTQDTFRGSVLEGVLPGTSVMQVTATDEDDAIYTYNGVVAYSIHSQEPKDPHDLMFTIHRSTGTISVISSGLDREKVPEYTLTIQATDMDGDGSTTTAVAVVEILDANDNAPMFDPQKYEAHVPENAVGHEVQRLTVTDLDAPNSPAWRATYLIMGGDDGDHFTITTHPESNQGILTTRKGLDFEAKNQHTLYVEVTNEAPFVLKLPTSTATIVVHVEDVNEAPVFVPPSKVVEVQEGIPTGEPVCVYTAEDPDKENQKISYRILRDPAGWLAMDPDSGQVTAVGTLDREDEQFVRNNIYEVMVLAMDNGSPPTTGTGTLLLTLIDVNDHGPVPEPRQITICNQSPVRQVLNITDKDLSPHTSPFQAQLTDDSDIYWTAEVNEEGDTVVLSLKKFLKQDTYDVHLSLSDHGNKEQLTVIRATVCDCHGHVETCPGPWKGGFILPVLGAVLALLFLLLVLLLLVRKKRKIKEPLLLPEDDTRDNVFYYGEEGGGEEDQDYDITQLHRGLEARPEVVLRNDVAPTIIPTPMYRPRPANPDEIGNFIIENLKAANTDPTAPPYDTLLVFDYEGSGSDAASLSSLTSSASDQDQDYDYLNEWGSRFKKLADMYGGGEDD

Chain of full length W2A-Pcad with an mCherry tag on the C-terminus (human) (P22223 whole entry W109A): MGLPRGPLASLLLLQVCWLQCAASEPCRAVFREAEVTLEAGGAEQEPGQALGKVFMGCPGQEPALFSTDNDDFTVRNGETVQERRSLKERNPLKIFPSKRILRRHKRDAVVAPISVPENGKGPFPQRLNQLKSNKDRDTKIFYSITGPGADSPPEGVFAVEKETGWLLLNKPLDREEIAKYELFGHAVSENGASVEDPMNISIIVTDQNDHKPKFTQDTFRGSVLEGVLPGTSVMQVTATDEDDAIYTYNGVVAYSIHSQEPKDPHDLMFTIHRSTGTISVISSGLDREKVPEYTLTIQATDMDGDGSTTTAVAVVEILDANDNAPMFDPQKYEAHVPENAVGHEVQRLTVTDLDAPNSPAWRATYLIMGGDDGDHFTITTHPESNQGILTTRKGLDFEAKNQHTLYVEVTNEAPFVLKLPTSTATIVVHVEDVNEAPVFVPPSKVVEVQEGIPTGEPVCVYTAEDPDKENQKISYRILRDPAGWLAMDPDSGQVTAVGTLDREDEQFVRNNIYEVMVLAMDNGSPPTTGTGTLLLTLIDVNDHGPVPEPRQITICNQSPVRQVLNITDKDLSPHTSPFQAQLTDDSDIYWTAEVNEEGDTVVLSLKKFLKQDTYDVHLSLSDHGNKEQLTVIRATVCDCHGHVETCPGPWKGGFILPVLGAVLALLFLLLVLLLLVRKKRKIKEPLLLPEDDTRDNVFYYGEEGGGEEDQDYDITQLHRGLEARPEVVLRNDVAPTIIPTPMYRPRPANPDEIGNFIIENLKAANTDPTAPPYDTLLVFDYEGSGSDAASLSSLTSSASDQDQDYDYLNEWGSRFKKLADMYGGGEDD

B1: p120-catenin (natural protein)
chain: MDDSEVESTASILASVKEQEAQFEKLTRALEEERRHVSAQLERVRVSPQDANPLMANGTLTRRHQNGRFVGDADLERQKFSDLKLNGPQDHSHLLYSTIPRMQEPGQIVETYTEEDPEGAMSVVSVETSDDGTTRRTETTVKKVVKTVTTRTVQPVAMGPDGLPVDASSVSNNYIQTLGRDFRKNGNGGPGPYVGQAGTATLPRNFHYPPDGYSRHYEDGYPGGSDNYGSLSRVTRIEERYRPSMEGYRAPSRQDVYGPQPQVRVGGSSVDLHRFHPEPYGLEDDQRSMGYDDLDYGMMSDYGTARRTGTPSDPRRRLRSYEDMIGEEVPSDQYYWAPLAQHERGSLASLDSLRKGGPPPPNWRQPELPEVIAMLGFRLDAVKSNAAAYLQHLCYRNDKVKTDVRKLKGIPVLVGLLDHPKKEVHLGACGALKNISFGRDQDNKIAIKNCDGVPALVRLLRKARDMDLTEVITGTLWNLSSHDSIKMEIVDHALHALTDEVIIPHSGWEREPNEDCKPRHIEWESVLTNTAGCLRNVSSERSEARRKLRECDGLVDALIFIVQAEIGQKDSDSKLVENCVCLLRNLSYQVHREIPQAERYQEAAPNVANNTGPHAASCFGAKKGKDEWFSRGKKPIEDPANDTVDFPKRTSPARGYELLFQPEVVRIYISLLKESKTPAILEASAGAIQNLCAGRWTYGRYIRSALRQEKALSAIADLLTNEHERVVKAASGALRNLAVDARNKELIGKHAIPNLVKNLPGGQQNSSWNFSEDTVISILNTINEVIAENLEAAKKLRETQGIEKLVLINKSGNRSEKEVRAAALVLQTIWGYKELRKPLEKEGWKKSDFQVNLNNASRSQSSHSYDDSTLPLIDRNQKSDKKPDREEIQMSNMGSNTKSLDNNYSTPNERGDHNRTLDRSGDLGDMEPLKGTTPLMQDEGQESLEEELDVLVLDDEGGQVSYPSMQKI
Turning to B1, the p120 associated with Pcad, percent of the WT -CQY condition in experiment [1] worked out at 30%. In addition, in experiment [2], the p120 associated with Pcad in cells grown with CQY684 Fab, percent of the WT -CQY condition was 60%.
